Measured values published in patent publication US7939490.

Target: Fn14-Fc fusion protein (murine Fn14 extracellular domain fused to the hinge and Fc of mouse IgG1, with myc and His tags) (murine)
Assay: ELISA, plate coated with Fn14-Fc, serial dilutions of FLAG-tagged TWEAK

Sequence of Fn14-Fc fusion protein (murine Fn14 extracellular domain fused to the hinge and Fc of mouse IgG1, with myc and His tags) (murine) (chain, as listed by the source): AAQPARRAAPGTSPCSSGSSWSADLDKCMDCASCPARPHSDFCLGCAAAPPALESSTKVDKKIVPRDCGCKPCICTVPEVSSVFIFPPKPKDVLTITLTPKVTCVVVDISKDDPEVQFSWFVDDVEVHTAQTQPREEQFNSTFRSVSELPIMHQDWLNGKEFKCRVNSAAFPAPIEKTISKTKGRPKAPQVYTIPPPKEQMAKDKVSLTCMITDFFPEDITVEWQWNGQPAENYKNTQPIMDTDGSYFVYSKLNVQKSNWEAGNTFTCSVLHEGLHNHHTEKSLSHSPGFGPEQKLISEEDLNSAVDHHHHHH

FLAG epitope-tagged TWEAK (ligand) gave a Kd of 1.1 nM.
